T1: FUT9 (Homo sapiens, UniProt Q9Y231)
T1 construct: purchased Bio-Techne (Minneapolis, MN)
T1 sequence (Q9Y231 1-359): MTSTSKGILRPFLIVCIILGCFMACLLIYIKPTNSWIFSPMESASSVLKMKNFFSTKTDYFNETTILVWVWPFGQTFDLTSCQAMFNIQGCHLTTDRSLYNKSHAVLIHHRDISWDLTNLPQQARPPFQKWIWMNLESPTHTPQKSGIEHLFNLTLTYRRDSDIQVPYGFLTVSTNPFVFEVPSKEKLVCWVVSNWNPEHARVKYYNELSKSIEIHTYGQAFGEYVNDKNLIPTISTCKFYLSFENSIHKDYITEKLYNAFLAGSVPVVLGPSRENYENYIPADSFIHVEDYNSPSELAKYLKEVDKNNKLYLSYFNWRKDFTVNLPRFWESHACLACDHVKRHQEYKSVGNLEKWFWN


Assays:
FUT9 = biological target: T1, FUT9; assay: Fluorescent labeling with fluorophore-conjugated fucose by FUT9; type: biochemical; conditions: 0.3 μg FUT9, 0.2 nmol donor, 30 μl, 37° C., FIG. 17
Description: (§1) FIG. 9A-FIG. 9B show exemplary results of probing substrate glycans of various fucosyltransferases on fetuin and asialofetuin. FIG. 9A. Probing substrate glycans of fucosyltransferases with guanosine 5′-diphosphate activated Cy5 conjugated fucose (GDP-Cy5-Fuc). […] FUT9 labeled itself (indicated by an arrow in the gel). FIG. 9B. Tolerance of Alexa-Fluor®555 (555), Alexa-Fluor®488 (488), and Cy5 by the indicated fucosyltransferases. All reactions were incubated at 37° C. for 30 minutes and then separated on SDS-PAGE and imaged with silver staining (upper panels) and fluorescent imager (lower panels). M, molecular marker.
FIG. 10A-FIG. 10D show exemplary results of probing core-6 fucosylation on antibodies by FUT8 incorporation of fluorophores. FIG. 10A. Results of probing substrate glycans of FUT8 (F8) and FUT9 (F9) on Cantuzumab, an anti-Muc1 therapeutic antibody, and NIST reference mAb 8671 using guanosine 5′-diphosphate activated Alexa-Fluor®555 conjugated fucose (GDP-AF555-Fuc) (555), GDP-Cy5-fucose (Cy5), and guanosine 5′-diphosphate activated Alexa-Fluor®488 conjugated fucose (GDP-AF488-Fuc) (488) as donor substrates. Cantuzumab was expressed in FUT8 knockout cells and is devoid of core-6 fucose. Molecular marker (MM) is a prestained Western molecular marker (Bio-Rad Laboratories, Hercules, CA). […] The product of each reaction was separated using SDS-PAGE and imaged with trichloroethanol (TCE) staining (upper panel) and fluorescent imager (lower panel). Labeling on the light chains of the antibodies by Alexa-Fluor®555 is likely the result of non-specific staining due to the use of unpurified GDP-AF555-Fuc that contained free Alexa-Fluor®555. FIG. 10B. […] FIG. 10C. […] FIG. 10D. Schematics of the glycan structures analyzed in FIG. 10B and FIG. 10C.
Mouse IgG (R&D Systems, Minneapolis, MN) was digested with Endo S thoroughly and labeled with 0.3 μg of FUT9 and 0.2 nmol of GDP-Cy5-Fuc in 30 μl at 37° C. for the indicated time points. The glycans were also pretreated with B4GalT2 for 5 minutes at 37° C. and then labeled in the same way. The reactions were separated on 15% SDS PAGE. B4GalT2 pretreatment converted all G1′ to G2′. Maximal labeling on G1′ and G2′ were achieved around 30 minutes. […] The heavy chain (HC) and light chain (LC) were visible in the TCE image. M, Western blot marker (Bio-Rad Laboratories, Hercules, CA).
(§2) For a typical labeling reaction, 1 μg to 5 μg target protein was mixed with 0.2 nmol GDP-f-Fuc and 0.2 μg of a fucosyltransferase in 30 μL buffer of 25 mM Tris pH 7.5, 10 mM MnCl2. The mixture was incubated at 37° C. for 30 minutes. The reaction was then separated by sodium dodecyl sulfate—polyacrylamide gel electrophoresis (SDS-PAGE) and the gel was directly imaged using a fluorescent imager FluorChem M ProteinSimple, Bio-Techne, Minneapolis, MN), followed by imaging with traditional protein imaging methods such as silver staining or trichloroethanol (TCE) staining.
The four enzymes tolerated the three fluorophores to different levels.

[1] = system: fetal bovine fetuin and asialofetuin; assay: Labeling of fetuin and asialofetuin by sialyltransferases with CMP-f-SA; type: biochemical; conditions: CMP-f-SA donors, FIG. 2
asialofetuin = assay: Asialofetuin labeling with variable amounts of ST3Gal1 or ST6Gal1 (FIG. 7); type: biochemical, bovine; conditions: 5 μg asialofetuin, 0.2 nmol CMP-Cy5-SA, 30 μL, 37° C., 30 minutes
[2] = system: fetal bovine fetuin and asialofetuin; assay: Labeling of fetuin and asialofetuin by fucosyltransferases with GDP-Cy5-Fuc; type: biochemical; conditions: GDP-Cy5-Fuc donor, FIG. 9A
Description: as §1, §2
The labeled samples were then separated on SDS-PAGE, followed by traditional protein gel imaging and fluorescent imaging.

[3] = Enzymatic synthesis of Le^x and sLe^x by glycan gel electrophoresis, substrate G2; type: biochemical; conditions: for Relative activity: normalized to FUT6 on sLe^x synthesis
Description: FIG. 21A. Schematic view of the enzymatic steps for Le^X and sLe^X synthesis on the antibody glycan G0. The glycan short names follow that of FIG. 10. FIG. 21B Kinetic comparison of galactosylation on G0 by B4GalT1, sialyation on G2 by ST3Gal4 and ST6Gal1, and fucosylation on A2[3] by FUT7. The reaction time for B4GalT1 was 10 minutes. The reaction time for ST3Gal4, FUT7 and ST6Gal1 was 5 hours. In each case, the labeling enzyme was subject to a 3-fold serial dilution starting from 1 μg each of B4GalT1, FUT7 and ST6Gal1, and 3 μg ST3Gal4. FIG. 21C. […] Reaction time for both cases was 20 minutes. […] FIG. 21D. […] Reaction time for both cases was 20 minutes.
For a typical labeling reaction, 1 μg to 5 μg target protein was mixed with 0.2 nmol fluorophore-conjugated GDP-fucose and 0.2 μg of a fucosyltransferase in 30μL 25 mM Tris pH 7.5, 10 mM MnCl2. The mixture was incubated at 37° C. for 30 minutes. […] To release labeled glycans from a glycoprotein, the sample was first denatured by heating at 95° C. for two minutes in the presence of 0.5% SDS and 80 mM β-mercaptoethanol and then renatured with 1% Triton X-100, and finally treated with PNGase F at 10:1 mass ratio at 37° C. for 20 minutes. To release glycans from antibody, a sample was directly treated with Endo S at 10:1 mass ratio at 37° C. for 20 minutes. All samples were separated by sodium dodecyl sulfate—polyacrylamide gel electrophoresis (SDS-PAGE) at […]. For separating labeled glycoproteins and antibodies, 4-20% gradient SDS gel was used. For separating labeled free glycans, 15% or 17% gel was used. After separation, all gels were imaged using a FluorChem M imager (ProteinSimple, Bio-Techne, Minneapolis, MN). For glycoproteins samples, the gel was also imaged with traditional methods such as silver staining or trichloroethanol (TCE) staining.
For sLe^x synthesis, G0 was first converted to G2 by B4GalT1, then converted to A2[3] by ST3Gal4, and finally converted to A2[3]F2 (carrier of sLe^x) by FUT7 (FIG. 21A). During these steps, different amounts of enzymes, and multiple reaction times were applied to reveal the intermediate products.
Intermediate products are signs for the progress of each enzymatic step.

Row | Molecule | Which of fetuin and asialofetuin the sialyltransferase labeled [1] | Enzyme amount achieving maximal labeling of asialofetuin (asialofetuin) | Enzyme amount showing clear visible labeling on asialofetuin (asialofetuin) | Which of fetuin and asialofetuin the fucosyltransferase labeled [2] | other results
1 | guanosine 5′-diphosphate activated Cy5 conjugated fucose [GDP-Cy5-Fuc] |  |  |  |  | Time to maximal labeling of B4GalT2 by FUT9 (FUT9): 20 min; Time to maximal labeling on G1′ and G2′ by FUT9 (FUT9; Endo S digested mouse IgG): around 30 minutes
2 | FUT2: recombinant fucosyltransferase, α1-2 linked fucose (protein, UniProt Q10981 1-343, looked up) Galactoside …: MLVVQMPFSFPMAHFILFVFTVSTIFHVQQRLAKIQAMWELPVQIPVLASTSKALGPSQLRGMWTINAIGRLGNQMGEYATLYALAKMNGRPAFIPAQMHSTLAPIFRITLPVLHSATASRIPWQNYHLNDWMEEEYRHIPGEYVRFTGYPCSWTFYHHLRQEILQEFTLHDHVREEAQKFLRGLQVNGSRPGTFVGVHVRRGDYVHVMPKVWKGVVADRRYLQQALDWFRARYSSLIFVVTSNGMAWCRENIDTSHGDVVFAGDGIEGSPAKDFALLTQCNHTIMTIGTFGIWAAYLTGGDTIYLANYTLPDSPFLKIFKPEAAFLPEWTGIAADLSPLLKH |  |  |  | labeled asialofetuin | 
3 | FUT9: recombinant α-3 fucosyltransferase strictly active on lactosamine (protein, UniProt Q9Y231 1-359, looked up) 4-galactosyl-N-acetylglucosami …: MTSTSKGILRPFLIVCIILGCFMACLLIYIKPTNSWIFSPMESASSVLKMKNFFSTKTDYFNETTILVWVWPFGQTFDLTSCQAMFNIQGCHLTTDRSLYNKSHAVLIHHRDISWDLTNLPQQARPPFQKWIWMNLESPTHTPQKSGIEHLFNLTLTYRRDSDIQVPYGFLTVSTNPFVFEVPSKEKLVCWVVSNWNPEHARVKYYNELSKSIEIHTYGQAFGEYVNDKNLIPTISTCKFYLSFENSIHKDYITEKLYNAFLAGSVPVVLGPSRENYENYIPADSFIHVEDYNSPSELAKYLKEVDKNNKLYLSYFNWRKDFTVNLPRFWESHACLACDHVKRHQEYKSVGNLEKWFWN |  |  |  | labeled asialofetuin | Activity based on reaction completion ([3]; substrate G2, completed product Le^x): 2.3 pmol/min/µg; Relative activity ([3]; substrate G2, product Le^x): 17

More lines, main results first:

Row | Which of fetuin and asialofetuin the sialyltransferase labeled [1] | Enzyme amount achieving maximal labeling of asialofetuin (asialofetuin) | Enzyme amount showing clear visible labeling on asialofetuin (asialofetuin) | Which of fetuin and asialofetuin the fucosyltransferase labeled [2] | Molecule | other results
4 | only labeled asialofetuin | 0.5 µg | 0.063 µg |  | α-2,3-sialyltransferase 1 (protein, UniProt Q11201 1-340, looked up, recombinant human sialyltransferase, Core-1 O-glycan specific) CMP-N-acetylneuraminate-beta-g …: MVTLRKRTLKVLTFLVLFIFLTSFFLNYSHTMVATTWFPKQMVLELSENLKRLIKHRPCTCTHCIGQRKLSAWFDERFNQTMQPLLTAQNALLEDDTYRWWLRLQREKKPNNLNDTIKELFRVVPGNVDPMLEKRSVGCRRCAVVGNSGNLRESSYGPEIDSHDFVLRMNKAPTAGFEADVGTKTTHHLVYPESFRELGDNVSMILVPFKTIDLEWVVSAITTGTISHTYIPVPAKIRVKQDKILIYHPAFIKYVFDNWLQGHGRYPSTGILSVIFSMHVCDEVDLYGFGADSKGNWHHYWENNPSAGAFRKTGVHDADFESNVTATLASINKIRIFKGR | 
5 | only labeled asialofetuin | 0.25 µg | 0.016 µg |  | α-2,6-sialyltransferase 1 (protein, UniProt P15907 1-406, looked up, recombinant human sialyltransferase, N-glycan specific) Beta-galactoside …: MIHTNLKKKFSCCVLVFLLFAVICVWKEKKKGSYYDSFKLQTKEFQVLKSLGKLAMGSDSQSVSSSSTQDPHRGRQTLGSLRGLAKAKPEASFQVWNKDSSSKNLIPRLQKIWKNYLSMNKYKVSYKGPGPGIKFSAEALRCHLRDHVNVSMVEVTDFPFNTSEWEGYLPKESIRTKAGPWGRCAVVSSAGSLKSSQLGREIDDHDAVLRFNGAPTANFQQDVGTKTTIRLMNSQLVTTEKRFLKDSLYNEGILIVWDPSVYHSDIPKWYQNPDYNFFNNYKTYRKLHPNQPFYILKPQMPWELWDILQEISPEEIQPNPPSSGMLGIIIMMTLCDQVDIYEFLPSKRKTDVCYYYQKFFDSACTMGAYHPLLYEKNLVKHLNQGTDEDIYLLGKATLPGFRTIHC | Time for the complete conversion of G2 to A2[6] ([3]; FIG. 21B): 5 h; Activity based on reaction completion ([3]; substrate G2, completed product A2[6]): 0.025 pmol/min/µg; Relative activity ([3]; substrate G2, product A2[6]): 0.19

Reference: patent US20240168030A1, “DIRECT FLUORESCENT GLYCAN LABELING” (BIO-TECHNE CORPORATION, priority 2019, published 2024)
